From paper PMC7053999, “ParB spreading on DNA requires cytidine triphosphate in vitro” (eLife, 2020)
Residue numbers refer to the chain shown, from its start. Names may count otherwise.

How the values were obtained:
Caulobacter ParB [1] = molecular target: T1, Caulobacter ParB (Caulobacter vibrioides, UniProt B8GW30, C297S); test: BLI, ParB accumulation on closed […] bp parS DNA; assay type: biochemical; conditions: 1 mM CTP, 1 uM ParB, Mg2+, pH 8.0, 22 °C; legend prints C97S in one place
T1 construct: full-length, C-terminal His6 (pET21b), E. coli Rosetta (DE3), dimer
T1 sequence (B8GW30 whole entry C297S): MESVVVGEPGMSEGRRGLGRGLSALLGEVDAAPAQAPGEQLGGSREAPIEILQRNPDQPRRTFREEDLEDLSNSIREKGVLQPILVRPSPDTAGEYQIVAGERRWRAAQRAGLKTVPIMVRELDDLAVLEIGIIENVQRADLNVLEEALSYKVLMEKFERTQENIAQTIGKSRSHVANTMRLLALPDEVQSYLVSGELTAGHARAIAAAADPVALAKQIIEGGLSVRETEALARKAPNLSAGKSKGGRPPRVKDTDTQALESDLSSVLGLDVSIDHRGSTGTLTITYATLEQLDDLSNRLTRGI

Caulobacter ParB [2] = molecular target: T2, Caulobacter ParB (Caulobacter vibrioides, UniProt B8GW30, Q35C/C297S); test: BMOE cross-linking of N-terminal domains, SDS-PAGE; assay type: binding; conditions: 1 mM CTP, 10 uM ParB, no parS DNA, Mg2+, pH 7.4, room temperature
T2 construct: full-length, C-terminal His6 (pET21b), E. coli Rosetta (DE3), dimer
T2 sequence (B8GW30 whole entry Q35C/C297S, the tested form may be a part): as the sequence (B8GW30 whole entry C297S) above, with Q35C counted along it

Zymomonas mobilis ParB = molecular target: T3, Zymomonas mobilis ParB (Zymomonas mobilis, UniProt F8ETX3); test: BLI, ParB accumulation on closed […] bp parS DNA; assay type: biochemical; conditions: 0.01 mM CTP, 1 uM ParB, Mg2+, pH 8.0, 22 °C
T3 construct: N-terminal His6-MBP (TEV) tag kept, E. coli Rosetta (DE3); chromosomal ParB
T3 sequence (F8ETX3 1-311): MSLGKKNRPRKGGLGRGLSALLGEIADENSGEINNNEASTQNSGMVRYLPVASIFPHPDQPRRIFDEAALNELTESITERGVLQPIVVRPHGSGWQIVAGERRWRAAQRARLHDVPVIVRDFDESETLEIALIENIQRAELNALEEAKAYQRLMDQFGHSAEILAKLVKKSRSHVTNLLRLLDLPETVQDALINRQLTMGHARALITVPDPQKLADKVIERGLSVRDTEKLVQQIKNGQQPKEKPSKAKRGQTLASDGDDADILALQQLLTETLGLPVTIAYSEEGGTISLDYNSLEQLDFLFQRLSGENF

[3] = molecular target: T4, Xanthomonas campestris ParB (Xanthomonas campestris, UniProt Q8P466); test: BLI, ParB accumulation on closed […] bp parS DNA; assay type: biochemical; conditions: 0.01 mM CTP, 1 uM ParB, Mg2+, pH 8.0, 22 °C
T4 construct: N-terminal His6-MBP (TEV) tag kept, E. coli Rosetta (DE3); chromosomal ParB
T4 sequence (Q8P466 1-309): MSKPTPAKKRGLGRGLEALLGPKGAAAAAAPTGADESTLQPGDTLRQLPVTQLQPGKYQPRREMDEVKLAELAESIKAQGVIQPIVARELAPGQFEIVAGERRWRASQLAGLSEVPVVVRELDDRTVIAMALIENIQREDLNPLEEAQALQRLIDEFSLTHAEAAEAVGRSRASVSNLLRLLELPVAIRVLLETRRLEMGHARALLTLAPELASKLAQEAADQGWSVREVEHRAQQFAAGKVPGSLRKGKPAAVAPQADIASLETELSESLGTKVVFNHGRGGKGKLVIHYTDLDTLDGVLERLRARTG

Caulobacter ParB [4] = molecular target: T5, Caulobacter ParB (Caulobacter vibrioides, UniProt B8GW30); test: DRaCALA membrane-spotting with radiolabelled CTP; assay type: binding; conditions: 22 bp parS DNA needed, Mg2+, pH 8.0, room temperature; labelled compound
T5 construct: full-length, C-terminal His6 (pET21b), E. coli Rosetta (DE3), dimer

[5] = molecular target: T6, TetR (class B, from Tn10) (Escherichia coli, UniProt P04483); test: BLI, release of TetR roadblock from tetO DNA; assay type: binding; conditions: 3 uM ahTc, 1 uM TetR, 1 uM ParB, 1 mM CTP, 170 bp closed parS-tetO DNA, Mg2+, 22 °C
T6 construct: C-terminal His6 (pET21b), E. coli Rosetta (DE3)
T6 sequence (P04483 whole entry): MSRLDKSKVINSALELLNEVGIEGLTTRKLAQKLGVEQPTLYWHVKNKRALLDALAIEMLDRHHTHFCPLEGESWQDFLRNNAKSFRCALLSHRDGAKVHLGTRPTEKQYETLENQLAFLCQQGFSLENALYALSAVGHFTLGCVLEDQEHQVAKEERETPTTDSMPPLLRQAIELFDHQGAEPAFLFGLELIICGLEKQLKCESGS

[6] = molecular target: T7, Caulobacter ParB-His6 (WT) (Caulobacter crescentus, UniProt B8GW30 1-304); test: BLI; 1 mM CTP (enhanced); BLI at 22 C: 100 mM Tris-HCl pH 8.0, 100 mM NaCl, 1 mM MgCl2, 0.005% Tween 20; 1 uM protein dimer. Pull-down: same buffer, room temperature, 5 min, 1 uM ParB, 1 mM NTP; conditions: protein: recombinant; tags: C-terminal His6; chain copies: 2; label: biotin at both 5' ends; blunt; both ends tethered (closed); polymerase may add 3' A
T7 sequence: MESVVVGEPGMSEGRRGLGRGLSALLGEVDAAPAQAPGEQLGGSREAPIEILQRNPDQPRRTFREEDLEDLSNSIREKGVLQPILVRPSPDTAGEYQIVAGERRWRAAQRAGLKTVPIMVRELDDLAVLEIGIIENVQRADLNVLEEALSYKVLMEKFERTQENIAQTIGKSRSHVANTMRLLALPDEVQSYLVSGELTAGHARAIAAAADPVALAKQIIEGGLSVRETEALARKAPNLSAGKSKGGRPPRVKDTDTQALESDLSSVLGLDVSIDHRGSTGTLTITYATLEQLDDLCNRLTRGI

[7] = molecular target: T8, TetR-His6 (class B, from Tn10) (Tn10, UniProt P04483 1-207); test: BLI; no NTP, Mg2+; BLI at 22 C: 100 mM Tris-HCl pH 8.0, 100 mM NaCl, 1 mM MgCl2, 0.005% Tween 20; 1 uM protein dimer. Pull-down: same buffer, room temperature, 5 min, 1 uM ParB, 1 mM NTP; conditions: protein: recombinant; tags: C-terminal His6; chain copies: 2; label: 5' biotin on strand 1; blunt
T8 sequence (P04483 whole entry): as the sequence (P04483 whole entry) above

[8] = molecular target: T7, Caulobacter ParB-His6 (WT); test: BLI; 0.125-2 uM ParB, no NTP; BLI at 22 C: 100 mM Tris-HCl pH 8.0, 100 mM NaCl, 1 mM MgCl2, 0.005% Tween 20; 1 uM protein dimer. Pull-down: same buffer, room temperature, 5 min, 1 uM ParB, 1 mM NTP; conditions: protein: recombinant; tags: C-terminal His6; chain copies: 2; label: 5' biotin on strand 1; blunt
[9] = molecular target: T7, Caulobacter ParB-His6 (WT); test: BLI; 1 mM CDP, Mg2+; BLI at 22 C: 100 mM Tris-HCl pH 8.0, 100 mM NaCl, 1 mM MgCl2, 0.005% Tween 20; 1 uM protein dimer. Pull-down: same buffer, room temperature, 5 min, 1 uM ParB, 1 mM NTP; conditions: protein: recombinant; tags: C-terminal His6; chain copies: 2; label: 5' biotin on strand 1; blunt
[10] = molecular target: T8, TetR-His6 (class B, from Tn10); test: BLI; 0.125-2 uM TetR, no NTP; BLI at 22 C: 100 mM Tris-HCl pH 8.0, 100 mM NaCl, 1 mM MgCl2, 0.005% Tween 20; 1 uM protein dimer. Pull-down: same buffer, room temperature, 5 min, 1 uM ParB, 1 mM NTP; conditions: protein: recombinant; tags: C-terminal His6; chain copies: 2; label: 5' biotin on strand 1; blunt
[11] = molecular target: T7, Caulobacter ParB-His6 (WT); test: BLI; 1 mM CTP, Mg2+; BLI at 22 C: 100 mM Tris-HCl pH 8.0, 100 mM NaCl, 1 mM MgCl2, 0.005% Tween 20; 1 uM protein dimer. Pull-down: same buffer, room temperature, 5 min, 1 uM ParB, 1 mM NTP; conditions: protein: recombinant; tags: C-terminal His6; chain copies: 2; label: biotin at both 5' ends; blunt; both ends tethered (closed); polymerase may add 3' A
[12] = molecular target: T7, Caulobacter ParB-His6 (WT); test: BLI; ParB-CTP prebound; dissociation in 1 mM CTP, Mg2+; BLI at 22 C: 100 mM Tris-HCl pH 8.0, 100 mM NaCl, 1 mM MgCl2, 0.005% Tween 20; 1 uM protein dimer. Pull-down: same buffer, room temperature, 5 min, 1 uM ParB, 1 mM NTP; conditions: protein: recombinant; tags: C-terminal His6; chain copies: 2; label: biotin at both 5' ends; blunt; both ends tethered (closed); polymerase may add 3' A
[13] = molecular target: T7, Caulobacter ParB-His6 (WT); test: BLI; 1 mM CTP, Mg2+ (no increase in response); BLI at 22 C: 100 mM Tris-HCl pH 8.0, 100 mM NaCl, 1 mM MgCl2, 0.005% Tween 20; 1 uM protein dimer. Pull-down: same buffer, room temperature, 5 min, 1 uM ParB, 1 mM NTP; conditions: protein: recombinant; tags: C-terminal His6; chain copies: 2; label: biotin at both 5' ends; blunt; both ends tethered (closed); polymerase may add 3' A
[14] = molecular target: the molecule itself; test: cross-linking; 10 µM ParB (Q35C C297S) ± 1 mM NTP (CTP, CTPγS or other NTPs) ± 0.5 µM 22 bp parS dsDNA in 10 mM Tris-HCl pH 7.4, 100 mM NaCl, 1 mM MgCl2, room temperature, 15 min or 1-30 min time course, then 1 mM BMOE; SDS-PAGE, InstantBlue stain

With `Nc1ccn([C@@H]2O[C@H](COP(=O)(O)OP(=O)(O)OP(=O)(O)O)[C@@H](O)[C@H]2O)c(=O)n1` [CTP] the “BLI, ParB accumulation on closed 169 bp parS DNA” value (“BLI, ParB accumulation” below) (Caulobacter ParB [1]) was “Both ParB (C297S) and ParB (Q35C C297S) were competent at spreading”, the “BMOE cross-linking of N-terminal domains, SDS-PAGE” value (Caulobacter ParB [2]) was “cross-linking of ParB (Q35C C297S) was also enhanced by CTP and CTPγS” and the “BLI, ParB accumulation” value (Zymomonas mobilis ParB) was “CTP facilitates the association of eight ParB orthologs with DNA”. For the same molecule, the “BLI, ParB accumulation” value [3] was “CTP facilitates the association of eight ParB orthologs with DNA” and the “DRaCALA membrane-spotting with radiolabelled CTP” value (Caulobacter ParB [4]) was “Caulobacter ParB binds to radiolabeled CTP in the presence of parS DNA”.

For `Cc1c2c(c(O)c3c(O)cccc13)C(=O)[C@]1(O)C(=O)C(C(N)=O)=C(O)[C@@H](N(C)C)[C@@H]1C2` [Anhydrotetracycline], the “BLI, release of TetR roadblock from tetO DNA” value [5] was “addition of anhydrotetracycline (ahTc), a negative effector of TetR”.

B1: 170 bp parS-tetO closed DNA (dsDNA)
DNA 1: CGCCAGGGTTTTCCCAGTCACGACGTTGTAAAACGACGGCCAGAATTCGCAACGTGTGTTTCACGTGAAACAGCCTTGAACTGATAACGACTCTATCATTGATAGAGTGTTCTCTCCACGGGATCCCCAGGCATGCAAGCTTGGCGTAATCATGGTCATAGCTGTTTCCT
DNA 2: AGGAAACAGCTATGACCATGATTACGCCAAGCTTGCATGCCTGGGGATCCCGTGGAGAGAACACTCTATCAATGATAGAGTCGTTATCAGTTCAAGGCTGTTTCACGTGAAACACACGTTGCGAATTCTGGCCGTCGTTTTACAACGTCGTGACTGGGAAAACCCTGGCG
B1: binds [6].

B2: 28 bp tetO (dsDNA)
DNA 1: GGGGACTCTATCATTGATAGAGTATGC
DNA 2: GCATACTCTATCAATGATAGAGTCCCC
B2: binds [7]; no binding [8].

B3: 20 bp parS (dsDNA)
DNA 1: GGGATGTTTCACGTGAAACA
DNA 2: TGTTTCACGTGAAACATCCC
B3: binds [9]; no binding [10].

B4: 169 bp parS closed DNA (dsDNA)
DNA 1: CGCCAGGGTTTTCCCAGTCACGACGTTGTAAAACGACGGCCAGTGAATTCGAGCTCGGTACCCGCAGGAGGACGTAGGGTAGGGGGATGTTTCACGTGAAACAGGGGATCCTCTAGAGTCGACCTGCAGGCATGCAAGCTTGGCGTAATCATGGTCATAGCTGTTTCCT
DNA 2: AGGAAACAGCTATGACCATGATTACGCCAAGCTTGCATGCCTGCAGGTCGACTCTAGAGGATCCCCTGTTTCACGTGAAACATCCCCCTACCCTACGTCCTCCTGCGGGTACCGAGCTCGAATTCACTGGCCGTCGTTTTACAACGTCGTGACTGGGAAAACCCTGGCG
B4 was tested, and the binding signal [11] was ~12 fold BLI response vs no NTP and the binding signal [12] was ~5 fold slower dissociation vs buffer without CTP.

B5: 169 bp scrambled parS closed DNA (dsDNA)
DNA 1: B4 DNA 1 with T88A, G89A, T92A, G96T, T97G, G98A, A99G, A100T, A101T, C102T
DNA 2: B4 DNA 2 with G68A, T69A, T70A, T71C, C72T, A73C, C74A, A78T, C81T, A82T
B5: no binding [13].

B6: Caulobacter ParB-His6 (Q35C C297S) (natural protein, Caulobacter crescentus, UniProt P0CAV8 1-304, looked up)
chain: T7 sequence with Q35C, C297S
notes: ParB, chromosome partitioning protein of Caulobacter crescentus; the cross-link reports engagement of the N-terminal domains of two subunits; The lone native cysteine C297 was changed to serine and Q35C was engineered in the N-terminal domain; Cloning in pET21b may add linker residues before the His6 tag (surmised); also called ParB (Q35C C297S); ParB (C297S Q35C); not shown: His6, C-terminal, …
B6: binds [14].
